In article PMC6680207, “ZmpTAC12 binds single‐stranded nucleic acids and is essential for accumulation of the plastid‐encoded polymerase complex in maize”:

Experiments:
rMBP-pTAC12 (ZmpTAC12) [1] = target: T1, rMBP-pTAC12 (ZmpTAC12) (Zea mays, UniProt B4FZ81 72-555); assay: EMSA; c. 100 pM probe; EMSA; 1 ug/ul heparin (ssRNA assays), c. 100 pM radiolabeled 50mer; buffer, salt, pH and temperature not in the material; conditions: protein: recombinant; tags: N-terminal MBP fusion; label: 5' end radiolabel (T4 PNK)
T1 sequence: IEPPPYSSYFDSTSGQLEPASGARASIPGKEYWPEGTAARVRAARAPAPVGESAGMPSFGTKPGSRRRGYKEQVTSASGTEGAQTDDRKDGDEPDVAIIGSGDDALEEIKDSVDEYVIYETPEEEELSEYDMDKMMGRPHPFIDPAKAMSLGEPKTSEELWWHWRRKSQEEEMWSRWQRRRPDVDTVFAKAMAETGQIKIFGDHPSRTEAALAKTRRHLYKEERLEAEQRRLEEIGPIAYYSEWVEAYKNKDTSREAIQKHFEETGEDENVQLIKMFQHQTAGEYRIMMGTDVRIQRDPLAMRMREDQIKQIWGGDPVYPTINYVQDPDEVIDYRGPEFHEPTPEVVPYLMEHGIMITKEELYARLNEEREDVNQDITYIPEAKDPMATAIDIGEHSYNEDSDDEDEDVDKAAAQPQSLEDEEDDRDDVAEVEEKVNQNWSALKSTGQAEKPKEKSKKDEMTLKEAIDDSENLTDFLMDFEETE

rMBP-pTAC12 (ZmpTAC12) [2] = target: T1, rMBP-pTAC12 (ZmpTAC12); assay: EMSA; 100 pM dsDNA; EMSA; 1 ug/ul heparin (ssRNA assays), c. 100 pM radiolabeled 50mer; buffer, salt, pH and temperature not in the material; conditions: protein: recombinant; tags: N-terminal MBP fusion; label: 5' end radiolabel (T4 PNK); blunt
rMBP-pTAC12 (ZmpTAC12) [3] = target: T1, rMBP-pTAC12 (ZmpTAC12); assay: EMSA; 1 ug/ul heparin; c. 100 pM probe; EMSA; 1 ug/ul heparin (ssRNA assays), c. 100 pM radiolabeled 50mer; buffer, salt, pH and temperature not in the material; conditions: protein: recombinant; tags: N-terminal MBP fusion; label: radiolabeled

TAATTGCTCCAGTGAATAACTAAAAAAAAAAATAGAAGGACGGTAGATAG (ssDNA) [psaAB-150 ssDNA]
binding result (rMBP-pTAC12 (ZmpTAC12) [1]): binds

B1: psaAB-150 dsDNA (dsDNA)
DNA 1: TAATTGCTCCAGTGAATAACTAAAAAAAAAAATAGAAGGACGGTAGATAG
DNA 2: CTATCTACCGTCCTTCTATTTTTTTTTTTAGTTATTCACTGGAGCAATTA
binding result (rMBP-pTAC12 (ZmpTAC12) [2]): no binding

B2: psaAB-150 ssRNA (ssRNA)
RNA: GGUAAUUGCUCCAGUGAAUAACUAAAAAAAAAAAUAGAAGGACGGUAGAUAG
binding result (rMBP-pTAC12 (ZmpTAC12) [3]): binds
